Source: the supplement of paper PMC7877785
± gives the uncertainty stated by the source.

Assay: self-splicing fitness, log relative to wild type (ln ratio); higher = more splicing; Tetrahymena group I intron in knt gene, E. coli kanamycin selection, DiMSum; sequences stand for … in CUCUCU…GGAGGGAAAAGUUAUCAGGCAUGCACCUGGUAGCUAGUCUUUAAACCAAUAGAUUGCAUCGGUUUAAAAGGCAAGACCGUCAAAUUGCGGGAAAGGGGUCAACAGCCGUUCAGUACCAAGUCUCAGGGGAAACUUUGAGAUGGCCUUGCAAAGGGUAUGGUAAUAAGCUGACGGACAUGGUCCUAACCACGCAGCCAAGUCCUAAGUCAACAGAUCUUCUGUUGAUAUGGAUGCAGUUCACAGACUAAAUGUCGGUCGGGGAAGAUGUAUUCUUCUCAUAAGAUAUAGUCGGACCUCUCCUUAAUGGGAGCUAGCGGAUGAAGUGAUGCAACACUGGAGCCGCUGGGAACUAAUUUGUAUGCGAAAGUAUAUUGAUUAGUUUUGGAGUACUCGUGGUCG
Procedure, shortened: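 Six replicate transformations of E. coli BL21(DE3) with a pET-22b(+) library were grown overnight at 37°C or 30°C. The library randomised all eight P1ex-region intron nucleotides, the intron lying in the knt kanamycin-resistance gene, and plates were LB agar with or without 25 μg/mL kanamycin plus 100 μg/mL carbenicillin, 50 μM IPTG and 0.2% rhamnose. Pooled colonies were amplicon-sequenced on an Illumina HiSeq 2500, and fitness is the DiMSum error-weighted combination of wild-type-normalised replicate fold changes, kanamycin versus none.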

| Sequence | self-splicing fitness (ln) (30 °C) | self-splicing fitness (ln) (37 °C) |
| --- | --- | --- |
| AAAUAGCAAUAUUACGUACA | -1.23 ± 0.071 | -0.523 ± 0.092 |
| AAAUAGCAAUAUUACGUGUC | -3.4 ± 0.19 | -3.29 ± 0.25 |
| AAAUAGCAAUAUUACGUUGA | -3.3 ± 0.41 | -0.771 ± 0.16 |
| AAAUAGCAAUAUUACGUUUA | -1.85 ± 0.15 | -1.03 ± 0.13 |
| AACAAGCAAUAUUACGAACC | -1.27 ± 0.12 | 0.0146 ± 0.19 |
| AACAAGCAAUAUUACGAAGG | -2.77 ± 0.19 | -1.95 ± 0.24 |
| AACAAGCAAUAUUACGAGAG | -3.79 ± 0.22 | -2.24 ± 0.14 |
| AACAAGCAAUAUUACGAGGG | -3 ± 0.11 | -1.35 ± 0.15 |
| AACAAGCAAUAUUACGAUCU | -0.25 ± 0.062 | -0.072 ± 0.08 |
| AACAAGCAAUAUUACGCACG | -1.31 ± 0.18 | -0.33 ± 0.18 |
| AACAAGCAAUAUUACGCAGG | -2.67 ± 0.11 | -1.49 ± 0.098 |
| AACAAGCAAUAUUACGCCAA | -2.32 ± 0.14 | -2.55 ± 0.16 |
| AACAAGCAAUAUUACGCCAG | -2.62 ± 0.15 | -1.24 ± 0.15 |
| AACAAGCAAUAUUACGCCCA | -0.0653 ± 0.094 | -0.00342 ± 0.11 |
| AACAAGCAAUAUUACGCCUG | -0.373 ± 0.094 | -0.0232 ± 0.095 |
| AACAAGCAAUAUUACGCCUU | -0.742 ± 0.11 | -0.314 ± 0.12 |
| AACAAGCAAUAUUACGGACG | -1.3 ± 0.061 | -0.887 ± 0.086 |
| AACAAGCAAUAUUACGGAUC | -1.6 ± 0.093 | -0.302 ± 0.11 |
| AACAAGCAAUAUUACGGCGG | -0.998 ± 0.078 | -0.826 ± 0.1 |
| AACAAGCAAUAUUACGGGCU | -1.82 ± 0.073 | -1.15 ± 0.099 |
| AACAAGCAAUAUUACGGUCA | -0.52 ± 0.043 | 0.199 ± 0.062 |
| AACAAGCAAUAUUACGGUGU | -2.51 ± 0.056 | -1.45 ± 0.068 |
| AACAAGCAAUAUUACGGUUG | -2.83 ± 0.1 | -1.64 ± 0.084 |
| AACAAGCAAUAUUACGUAUG | -3.33 ± 0.12 | -1.85 ± 0.1 |

| Sequence | self-splicing fitness (ln) (30 °C) | self-splicing fitness (ln) (37 °C) |
| --- | --- | --- |
| AACAAGCAAUAUUACGUCGG | -2.99 ± 0.14 | -1.99 ± 0.15 |
| AACAAGCAAUAUUACGUGUA | -1.55 ± 0.046 | -1.01 ± 0.054 |
| AACAAGCAAUAUUACGUUGG | -3.76 ± 0.13 | -3.31 ± 0.18 |
| AACAAGCAAUAUUACGUUUG | -2.87 ± 0.096 | -2.46 ± 0.12 |
| AACCAGCAAUAUUACGAAUU | -0.517 ± 0.064 | -0.314 ± 0.081 |
| AACCAGCAAUAUUACGACAA | -1.14 ± 0.12 | -0.155 ± 0.12 |
| AACCAGCAAUAUUACGACGG | -2.1 ± 0.089 | -0.974 ± 0.11 |
| AACCAGCAAUAUUACGACUA | 0.0905 ± 0.084 | -0.0751 ± 0.079 |
| AACCAGCAAUAUUACGAGAU | -1.96 ± 0.078 | -0.239 ± 0.083 |
| AACCAGCAAUAUUACGAGGG | -3.27 ± 0.11 | -2.1 ± 0.11 |
| AACCAGCAAUAUUACGAGUA | -1.07 ± 0.061 | -0.523 ± 0.075 |
| AACCAGCAAUAUUACGAUAG | -2.87 ± 0.16 | -2.11 ± 0.15 |
| AACCAGCAAUAUUACGCAUC | -1.98 ± 0.079 | -0.531 ± 0.085 |
| AACCAGCAAUAUUACGCGGC | -3.79 ± 0.2 | -3.14 ± 0.23 |
| AACCAGCAAUAUUACGGAAU | -2.06 ± 0.08 | -0.602 ± 0.091 |
| AACCAGCAAUAUUACGGAGA | -1.62 ± 0.086 | -1.5 ± 0.084 |
| AACCAGCAAUAUUACGGGCU | -2.19 ± 0.093 | -1.71 ± 0.1 |
| AACCAGCAAUAUUACGGUUG | -2.21 ± 0.05 | -0.839 ± 0.06 |
| AACCAGCAAUAUUACGUAAU | -1.45 ± 0.055 | -0.238 ± 0.069 |
| AACCAGCAAUAUUACGUGAU | -1.66 ± 0.04 | -1.11 ± 0.05 |
| AACCAGCAAUAUUACGUGGG | -3.94 ± 0.12 | -2.57 ± 0.094 |
| AACCAGCAAUAUUACGUGUC | -3.29 ± 0.094 | -1.42 ± 0.075 |
| AACCAGCAAUAUUACGUGUG | -1.05 ± 0.033 | -0.463 ± 0.048 |
| AACCAGCAAUAUUACGUUCA | -0.752 ± 0.06 | -0.495 ± 0.065 |

| Sequence | self-splicing fitness (ln) (30 °C) | self-splicing fitness (ln) (37 °C) |
| --- | --- | --- |
| AACCAGCAAUAUUACGUUCU | -1.15 ± 0.043 | -0.678 ± 0.053 |
| AACCAGCAAUAUUACGUUGU | -2.68 ± 0.077 | -2.38 ± 0.1 |
| AACGAGCAAUAUUACGAACA | -3.15 ± 0.28 | -1.9 ± 0.16 |
| AACGAGCAAUAUUACGAAGA | -3.13 ± 0.33 | -1.82 ± 0.44 |
| AACGAGCAAUAUUACGACUG | -2.12 ± 0.16 | -0.348 ± 0.15 |
| AACGAGCAAUAUUACGAGCU | -4.74 ± 0.36 | -3.22 ± 0.27 |
| AACGAGCAAUAUUACGAUAA | -3.76 ± 0.2 | -2.94 ± 0.21 |
| AACGAGCAAUAUUACGAUCA | -2.1 ± 0.21 | -1.41 ± 0.21 |
| AACGAGCAAUAUUACGAUGC | -2.93 ± 0.2 | -1.52 ± 0.26 |
| AACGAGCAAUAUUACGAUUU | -0.71 ± 0.067 | -0.294 ± 0.082 |
| AACGAGCAAUAUUACGCAAA |  | -1.9 ± 0.35 |
| AACGAGCAAUAUUACGCGCU | -3.43 ± 0.2 | -0.902 ± 0.14 |
| AACGAGCAAUAUUACGCGGA | -2.97 ± 0.2 | -2.01 ± 0.2 |
| AACGAGCAAUAUUACGCGGC | -2.71 ± 0.33 | -2.15 ± 0.33 |
| AACGAGCAAUAUUACGCGGU | -3.29 ± 0.26 | -1.62 ± 0.15 |
| AACGAGCAAUAUUACGCUCU | -5.11 ± 0.41 | -1.81 ± 0.14 |
| AACGAGCAAUAUUACGCUGA | -1.64 ± 0.27 | -2.29 ± 0.39 |
| AACGAGCAAUAUUACGCUUG | -2.67 ± 0.17 | -2.99 ± 0.29 |
| AACGAGCAAUAUUACGGCGG | -2.67 ± 0.14 | -1.13 ± 0.13 |
| AACGAGCAAUAUUACGGCUU | -0.938 ± 0.076 | -0.225 ± 0.1 |
| AACGAGCAAUAUUACGGGAC | -3.37 ± 0.22 | -3.61 ± 0.46 |
| AACGAGCAAUAUUACGGGGU | -3.26 ± 0.35 |  |
| AACGAGCAAUAUUACGGUAA | -4.2 ± 0.42 | -2.47 ± 0.28 |
| AACGAGCAAUAUUACGGUAG | -3.73 ± 0.15 | -3.17 ± 0.18 |

| Sequence | self-splicing fitness (ln) (30 °C) | self-splicing fitness (ln) (37 °C) |
| --- | --- | --- |
| AACGAGCAAUAUUACGGUGU | -3.36 ± 0.17 | -1.81 ± 0.18 |
| AACGAGCAAUAUUACGUAAG | -4.14 ± 0.3 | -0.595 ± 0.14 |
| AACGAGCAAUAUUACGUAGA | -2.99 ± 0.12 | -2.43 ± 0.17 |
| AACGAGCAAUAUUACGUCUC | -3.67 ± 0.29 | -3.03 ± 0.27 |
| AACGAGCAAUAUUACGUGUA | -2.55 ± 0.11 | -3.2 ± 0.14 |
| AACGAGCAAUAUUACGUUAG | -3.71 ± 0.33 | -3.11 ± 0.3 |
| AACGAGCAAUAUUACGUUUU | -3.9 ± 0.14 | -2.79 ± 0.14 |
| AACUAGCAAUAUUACGAAUU | -1.49 ± 0.076 | -0.396 ± 0.097 |
| AACUAGCAAUAUUACGACCA | -0.23 ± 0.079 | 0.118 ± 0.1 |
| AACUAGCAAUAUUACGACCG | -0.914 ± 0.12 | 0.134 ± 0.15 |
| AACUAGCAAUAUUACGACGG | -2.21 ± 0.14 | -0.86 ± 0.21 |
| AACUAGCAAUAUUACGACUU | -0.0929 ± 0.069 | 0.236 ± 0.09 |
| AACUAGCAAUAUUACGAUAG | -3.19 ± 0.19 | -1.77 ± 0.13 |
| AACUAGCAAUAUUACGCACC | 0.625 ± 0.17 | -1.48 ± 0.25 |
| AACUAGCAAUAUUACGCAUG | -1.25 ± 0.083 | -0.11 ± 0.086 |
| AACUAGCAAUAUUACGCCCG | -1.11 ± 0.18 | -0.346 ± 0.23 |
| AACUAGCAAUAUUACGCCGU | -1.62 ± 0.11 | -0.221 ± 0.14 |
| AACUAGCAAUAUUACGCCUA | -0.593 ± 0.11 | -0.206 ± 0.11 |
| AACUAGCAAUAUUACGCGCC | -1.34 ± 0.12 | -0.314 ± 0.12 |
| AACUAGCAAUAUUACGCGGC | -3.01 ± 0.19 | -3.27 ± 0.22 |
| AACUAGCAAUAUUACGCUGG | -3.28 ± 0.4 | -2.34 ± 0.22 |
| AACUAGCAAUAUUACGCUUC | -3.74 ± 0.33 | -1.68 ± 0.2 |
| AACUAGCAAUAUUACGGAUC | -1.78 ± 0.17 | -1.37 ± 0.12 |
